Results taken from IntAct's records for PubMed 35512704.

B1: Mothers against decapentaplegic homolog 4 (Homo sapiens), Q13485 (parent)
chain: MDNMSITNTPTSNDACLSIVHSLMCHRQGGESETFAKRAIESLVKKLKEKKDELDSLITAITTNGAHPSKCVTIQRTLDGRLQVAGRKGFPHVIYARLWRWPDLHKNELKHVKYCQYAFDLKCDSVCVNPYHYERVVSPGIDLSGLTLQSNAPSSMMVKDEYVHDFEGQPSLSTEGHSIQTIQHPPSNRASTETYSTPALLAPSESNATSTANFPNIPVASTSQPASILGGSHSEGLLQIASGPQPGQQQNGFTGQPATYHHNSTTTWTGSRTAPYTPNLPHHQNGHLQHHPPMPPHPGHYWPVHNELAFQPPISNHPAPEYWCSIAYFEMDVQVGETFKVPSSCPIVTVDGYVDPSGGDRFCLGQLSNVHRTEAIERARLHIGKGVQLECKGEGDVWVRCLSDHAVFVQSYYLDREAGRAPGDAVHKIYPSAYIKVFDLRQCHRQMQQQAATAQAAAAAQAAAVAGNIPGPGSVGGIAPAISLSAAAGIGVDDLRRLCILRMSFVKGWGPDYPRQSIKETPCWIEIHLHRALQLLDEVLHTMPIADPQPLD

Variants of: B1
Conditions: with grm1_human GRM1, Q13255

effect of a mutation on the interaction | Variant
with no effect | R361C

Variants of: B1
Conditions: with grm3_human GRM3, Q14832

effect of a mutation on the interaction | Variant
with no effect | R361C

Variants of: B1
Conditions: with gsk3a_human GSK3A

effect of a mutation on the interaction | Variant
with no effect | R361C

Variants of: B1
Conditions: with hdac1_human HDAC1, Q13547
hdac1_human HDAC1, Q13547, sequence (Q13547 whole entry): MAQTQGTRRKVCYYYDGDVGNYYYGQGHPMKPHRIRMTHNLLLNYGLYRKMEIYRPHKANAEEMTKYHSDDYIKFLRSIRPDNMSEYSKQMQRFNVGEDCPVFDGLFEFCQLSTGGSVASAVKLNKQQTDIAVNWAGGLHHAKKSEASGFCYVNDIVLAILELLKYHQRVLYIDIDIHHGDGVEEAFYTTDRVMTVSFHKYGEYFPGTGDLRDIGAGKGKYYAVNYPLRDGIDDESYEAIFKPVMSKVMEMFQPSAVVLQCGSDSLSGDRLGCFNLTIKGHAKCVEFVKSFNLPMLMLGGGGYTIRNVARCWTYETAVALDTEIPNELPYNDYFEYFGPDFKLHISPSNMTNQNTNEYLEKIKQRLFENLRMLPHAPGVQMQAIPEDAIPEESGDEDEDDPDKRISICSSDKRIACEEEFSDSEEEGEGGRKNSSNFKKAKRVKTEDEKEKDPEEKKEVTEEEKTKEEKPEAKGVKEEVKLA

effect of a mutation on the interaction | Variant
with no effect | R361C

Variants of: B1
Conditions: with hdac3_human HDAC3, O15379

effect of a mutation on the interaction | Variant
with no effect | R361C

Variants of: B1
Conditions: with hgf_human HGF

effect of a mutation on the interaction | Variant
with no effect | R361C

Variants of: B1
Conditions: with h31_human H3C1, P68431

effect of a mutation on the interaction | Variant
with no effect | R361C

Variants of: B1
Conditions: with hlab_human HLA-B

effect of a mutation on the interaction | Variant
with no effect | R361C

Variants of: B1
Conditions: with hnf1a_human HNF1A

effect of a mutation on the interaction | Variant
with no effect | R361C

Variants of: B1
Conditions: with rash_human HRAS

effect of a mutation on the interaction | Variant
with no effect | R361C

Variants of: B1
Conditions: with hs90a_human HSP90AA1, P07900

effect of a mutation on the interaction | Variant
with no effect | R361C

Variants of: B1
Conditions: with il7ra_human IL7R

effect of a mutation on the interaction | Variant
with no effect | R361C

Variants of: B1
Conditions: with irf6_human IRF6, O14896

effect of a mutation on the interaction | Variant
with no effect | R361C

Variants of: B1
Conditions: with irs1_human IRS1, P35568

effect of a mutation on the interaction | Variant
with no effect | R361C

Variants of: B1
Conditions: with jak1_human JAK1, P23458

effect of a mutation on the interaction | Variant
with no effect | R361C

Variants of: B1
Conditions: with jak3_human JAK3, P52333

effect of a mutation on the interaction | Variant
with no effect | R361C

Variants of: B1
Conditions: with kdm5c_human KDM5C

effect of a mutation on the interaction | Variant
with no effect | R361C

Variants of: B1
Conditions: with vgfr2_human KDR

effect of a mutation on the interaction | Variant
with no effect | R361C

Variants of: B1
Conditions: with keap1_human KEAP1, Q14145

effect of a mutation on the interaction | Variant
with no effect | R361C

Variants of: B1
Conditions: with klf4_human KLF4, O43474

effect of a mutation on the interaction | Variant
with no effect | R361C

Variants of: B1
Conditions: with maga6_human MAGEA6, P43360

effect of a mutation on the interaction | Variant
with no effect | R361C

Variants of: B1
Conditions: with mp2k7_human MAP2K7, O14733
mp2k7_human MAP2K7, O14733, sequence (O14733 whole entry): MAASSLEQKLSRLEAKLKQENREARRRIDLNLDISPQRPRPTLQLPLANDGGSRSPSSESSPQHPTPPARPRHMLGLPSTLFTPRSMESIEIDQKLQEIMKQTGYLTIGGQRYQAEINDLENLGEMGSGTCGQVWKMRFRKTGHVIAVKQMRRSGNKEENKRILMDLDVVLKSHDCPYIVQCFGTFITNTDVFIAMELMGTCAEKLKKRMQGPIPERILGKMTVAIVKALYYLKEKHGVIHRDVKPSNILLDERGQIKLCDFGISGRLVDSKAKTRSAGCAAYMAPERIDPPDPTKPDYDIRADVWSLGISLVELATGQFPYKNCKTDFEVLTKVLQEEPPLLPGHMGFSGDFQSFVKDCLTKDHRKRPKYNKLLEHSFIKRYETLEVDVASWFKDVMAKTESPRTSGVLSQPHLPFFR

effect of a mutation on the interaction | Variant
with no effect | R361C

Variants of: B1
Conditions: with m3k1_human MAP3K1, Q13233

effect of a mutation on the interaction | Variant
with no effect | R361C

Variants of: B1
Conditions: with mk10_human MAPK10, P53779
mk10_human MAPK10, P53779, sequence (P53779 whole entry): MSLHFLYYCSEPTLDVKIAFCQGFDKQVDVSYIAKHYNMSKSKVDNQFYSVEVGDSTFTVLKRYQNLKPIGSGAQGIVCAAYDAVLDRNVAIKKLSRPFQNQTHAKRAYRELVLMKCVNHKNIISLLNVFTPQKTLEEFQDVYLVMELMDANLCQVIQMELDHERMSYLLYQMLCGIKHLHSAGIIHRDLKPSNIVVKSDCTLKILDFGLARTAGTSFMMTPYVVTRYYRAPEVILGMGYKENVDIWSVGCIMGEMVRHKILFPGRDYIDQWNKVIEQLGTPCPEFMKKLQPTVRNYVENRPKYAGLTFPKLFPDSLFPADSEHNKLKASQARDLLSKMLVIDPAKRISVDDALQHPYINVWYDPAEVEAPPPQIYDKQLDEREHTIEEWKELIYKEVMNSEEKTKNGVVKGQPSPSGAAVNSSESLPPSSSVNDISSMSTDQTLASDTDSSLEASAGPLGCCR

effect of a mutation on the interaction | Variant
with no effect | R361C

Variants of: B1
Conditions: with mk14_human MAPK14, Q16539

effect of a mutation on the interaction | Variant
with no effect | R361C

Variants of: B1
Conditions: with mk03_human MAPK3, P27361

effect of a mutation on the interaction | Variant
with no effect | R361C

Variants of: B1
Conditions: with mk04_human MAPK4, P31152

effect of a mutation on the interaction | Variant
with no effect | R361C

Variants of: B1
Conditions: with mk06_human MAPK6, Q16659
mk06_human MAPK6, Q16659, sequence (Q16659 whole entry): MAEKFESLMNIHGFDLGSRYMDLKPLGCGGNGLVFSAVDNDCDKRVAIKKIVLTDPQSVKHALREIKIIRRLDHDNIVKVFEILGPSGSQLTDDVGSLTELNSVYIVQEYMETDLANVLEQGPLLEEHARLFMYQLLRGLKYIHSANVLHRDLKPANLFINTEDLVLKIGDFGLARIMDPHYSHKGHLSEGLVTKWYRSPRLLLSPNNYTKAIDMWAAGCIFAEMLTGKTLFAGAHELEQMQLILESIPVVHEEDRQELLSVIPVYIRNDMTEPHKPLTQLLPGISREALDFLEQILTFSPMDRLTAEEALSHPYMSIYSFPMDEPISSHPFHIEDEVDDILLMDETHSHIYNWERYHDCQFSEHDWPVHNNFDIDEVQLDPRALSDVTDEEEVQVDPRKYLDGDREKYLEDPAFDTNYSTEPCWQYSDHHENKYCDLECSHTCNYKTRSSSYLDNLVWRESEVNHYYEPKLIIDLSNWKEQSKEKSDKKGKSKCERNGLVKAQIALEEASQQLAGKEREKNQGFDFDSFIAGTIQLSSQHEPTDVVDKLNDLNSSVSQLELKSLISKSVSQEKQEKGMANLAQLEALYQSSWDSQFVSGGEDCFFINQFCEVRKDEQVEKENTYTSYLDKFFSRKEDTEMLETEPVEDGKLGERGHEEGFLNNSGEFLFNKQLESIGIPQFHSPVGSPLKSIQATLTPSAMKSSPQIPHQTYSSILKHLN

effect of a mutation on the interaction | Variant
with no effect | R361C

Variants of: B1
Conditions: with mcl1_human MCL1, Q07820

effect of a mutation on the interaction | Variant
with no effect | R361C

Variants of: B1
Conditions: with mitf_human MITF

effect of a mutation on the interaction | Variant
with no effect | R361C

Variants of: B1
Conditions: with myc_human MYC

effect of a mutation on the interaction | Variant
with no effect | R361C

Variants of: B1
Conditions: with nf1_human NF1, P21359

effect of a mutation on the interaction | Variant
with no effect | R361C

Variants of: B1
Conditions: with merl_human NF2, P35240
merl_human NF2, P35240, sequence (P35240 whole entry): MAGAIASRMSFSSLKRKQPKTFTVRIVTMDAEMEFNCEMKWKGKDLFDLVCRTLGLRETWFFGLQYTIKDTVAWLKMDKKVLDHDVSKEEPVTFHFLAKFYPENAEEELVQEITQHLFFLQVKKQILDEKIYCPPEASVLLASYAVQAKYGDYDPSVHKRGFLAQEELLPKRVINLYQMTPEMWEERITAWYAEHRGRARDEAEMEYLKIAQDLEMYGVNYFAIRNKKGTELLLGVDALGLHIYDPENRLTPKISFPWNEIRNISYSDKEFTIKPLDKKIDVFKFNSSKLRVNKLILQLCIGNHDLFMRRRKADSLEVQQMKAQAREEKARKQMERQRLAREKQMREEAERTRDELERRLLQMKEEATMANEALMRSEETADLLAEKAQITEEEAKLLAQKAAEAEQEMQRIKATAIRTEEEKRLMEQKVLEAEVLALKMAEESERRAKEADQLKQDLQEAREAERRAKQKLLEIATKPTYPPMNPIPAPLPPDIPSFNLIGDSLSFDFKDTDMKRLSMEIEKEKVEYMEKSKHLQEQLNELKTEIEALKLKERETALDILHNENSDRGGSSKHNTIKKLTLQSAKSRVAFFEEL

effect of a mutation on the interaction | Variant
with no effect | R361C

Variants of: B1
Conditions: with nfic_human NFIC

effect of a mutation on the interaction | Variant
with no effect | R361C

Variants of: B1
Conditions: with notc2_human NOTCH2, Q04721

effect of a mutation on the interaction | Variant
with no effect | R361C

Variants of: B1
Conditions: with pak3_human PAK3, O75914

effect of a mutation on the interaction | Variant
with no effect | R361C

Variants of: B1
Conditions: with pax5_human PAX5, Q02548

effect of a mutation on the interaction | Variant
with no effect | R361C

Variants of: B1
Conditions: with pax9_human PAX9, P55771

effect of a mutation on the interaction | Variant
with no effect | R361C

Variants of: B1
Conditions: with pb1_human PBRM1, Q86U86

effect of a mutation on the interaction | Variant
with no effect | R361C

Variants of: B1
Conditions: with pcbp1_human PCBP1, Q15365
pcbp1_human PCBP1, Q15365, sequence (Q15365 whole entry): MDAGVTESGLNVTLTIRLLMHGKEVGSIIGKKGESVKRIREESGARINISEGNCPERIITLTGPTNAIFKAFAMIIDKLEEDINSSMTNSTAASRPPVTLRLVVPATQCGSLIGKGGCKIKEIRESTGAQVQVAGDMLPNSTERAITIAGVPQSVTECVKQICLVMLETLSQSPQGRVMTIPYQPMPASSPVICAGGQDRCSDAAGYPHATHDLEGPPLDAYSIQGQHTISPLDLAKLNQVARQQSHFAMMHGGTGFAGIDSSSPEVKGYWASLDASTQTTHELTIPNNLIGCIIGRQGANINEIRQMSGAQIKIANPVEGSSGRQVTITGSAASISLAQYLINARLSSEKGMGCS

effect of a mutation on the interaction | Variant
with no effect | R361C

Variants of: B1
Conditions: with pgfra_human PDGFRA

effect of a mutation on the interaction | Variant
with no effect | R361C

Variants of: B1
Conditions: with pgfrb_human PDGFRB

effect of a mutation on the interaction | Variant
with no effect | R361C

Variants of: B1
Conditions: with pdk1_human PDK1, Q15118

effect of a mutation on the interaction | Variant
with no effect | R361C

Variants of: B1
Conditions: with PIK3C2B

effect of a mutation on the interaction | Variant
with no effect | R361C

Variants of: B1
Conditions: with pk3c3_human PIK3C3, Q8NEB9

effect of a mutation on the interaction | Variant
with no effect | R361C

Variants of: B1
Conditions: with pk3ca_human PIK3CA

effect of a mutation on the interaction | Variant
with no effect | R361C

Variants of: B1
Conditions: with pk3cg_human PIK3CG

effect of a mutation on the interaction | Variant
with no effect | R361C

Variants of: B1
Conditions: with p85a_human PIK3R1, P27986
p85a_human PIK3R1, P27986, sequence (P27986 whole entry): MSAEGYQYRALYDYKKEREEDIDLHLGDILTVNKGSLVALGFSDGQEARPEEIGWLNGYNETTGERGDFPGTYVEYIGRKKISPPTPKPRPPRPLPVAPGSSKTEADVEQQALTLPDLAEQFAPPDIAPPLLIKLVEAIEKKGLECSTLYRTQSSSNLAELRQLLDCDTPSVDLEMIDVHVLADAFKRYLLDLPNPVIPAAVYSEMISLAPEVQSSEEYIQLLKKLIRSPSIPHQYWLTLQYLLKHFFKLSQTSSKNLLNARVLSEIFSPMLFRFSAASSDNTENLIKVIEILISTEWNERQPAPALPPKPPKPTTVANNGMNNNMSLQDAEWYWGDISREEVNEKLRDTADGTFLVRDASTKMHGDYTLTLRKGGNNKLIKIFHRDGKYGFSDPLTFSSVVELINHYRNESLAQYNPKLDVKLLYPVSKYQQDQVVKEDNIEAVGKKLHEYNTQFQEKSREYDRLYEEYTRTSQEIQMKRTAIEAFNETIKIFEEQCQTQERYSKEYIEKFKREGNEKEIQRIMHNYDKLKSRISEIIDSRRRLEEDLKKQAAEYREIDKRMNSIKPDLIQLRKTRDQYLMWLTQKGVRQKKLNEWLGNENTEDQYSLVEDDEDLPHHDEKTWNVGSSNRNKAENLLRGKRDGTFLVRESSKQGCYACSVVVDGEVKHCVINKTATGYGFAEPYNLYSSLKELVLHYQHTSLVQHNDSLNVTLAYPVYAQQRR

effect of a mutation on the interaction | Variant
with no effect | R361C

Variants of: B1
Conditions: with p85b_human PIK3R2, O00459

effect of a mutation on the interaction | Variant
with no effect | R361C

Variants of: B1
Conditions: with dpod1_human POLD1, P28340

effect of a mutation on the interaction | Variant
with no effect | R361C

Variants of: B1
Conditions: with dpoe1_human POLE

effect of a mutation on the interaction | Variant
with no effect | R361C

Variants of: B1
Conditions: with lipa1_human PPFIA1, Q13136
lipa1_human PPFIA1, Q13136, sequence (Q13136 whole entry): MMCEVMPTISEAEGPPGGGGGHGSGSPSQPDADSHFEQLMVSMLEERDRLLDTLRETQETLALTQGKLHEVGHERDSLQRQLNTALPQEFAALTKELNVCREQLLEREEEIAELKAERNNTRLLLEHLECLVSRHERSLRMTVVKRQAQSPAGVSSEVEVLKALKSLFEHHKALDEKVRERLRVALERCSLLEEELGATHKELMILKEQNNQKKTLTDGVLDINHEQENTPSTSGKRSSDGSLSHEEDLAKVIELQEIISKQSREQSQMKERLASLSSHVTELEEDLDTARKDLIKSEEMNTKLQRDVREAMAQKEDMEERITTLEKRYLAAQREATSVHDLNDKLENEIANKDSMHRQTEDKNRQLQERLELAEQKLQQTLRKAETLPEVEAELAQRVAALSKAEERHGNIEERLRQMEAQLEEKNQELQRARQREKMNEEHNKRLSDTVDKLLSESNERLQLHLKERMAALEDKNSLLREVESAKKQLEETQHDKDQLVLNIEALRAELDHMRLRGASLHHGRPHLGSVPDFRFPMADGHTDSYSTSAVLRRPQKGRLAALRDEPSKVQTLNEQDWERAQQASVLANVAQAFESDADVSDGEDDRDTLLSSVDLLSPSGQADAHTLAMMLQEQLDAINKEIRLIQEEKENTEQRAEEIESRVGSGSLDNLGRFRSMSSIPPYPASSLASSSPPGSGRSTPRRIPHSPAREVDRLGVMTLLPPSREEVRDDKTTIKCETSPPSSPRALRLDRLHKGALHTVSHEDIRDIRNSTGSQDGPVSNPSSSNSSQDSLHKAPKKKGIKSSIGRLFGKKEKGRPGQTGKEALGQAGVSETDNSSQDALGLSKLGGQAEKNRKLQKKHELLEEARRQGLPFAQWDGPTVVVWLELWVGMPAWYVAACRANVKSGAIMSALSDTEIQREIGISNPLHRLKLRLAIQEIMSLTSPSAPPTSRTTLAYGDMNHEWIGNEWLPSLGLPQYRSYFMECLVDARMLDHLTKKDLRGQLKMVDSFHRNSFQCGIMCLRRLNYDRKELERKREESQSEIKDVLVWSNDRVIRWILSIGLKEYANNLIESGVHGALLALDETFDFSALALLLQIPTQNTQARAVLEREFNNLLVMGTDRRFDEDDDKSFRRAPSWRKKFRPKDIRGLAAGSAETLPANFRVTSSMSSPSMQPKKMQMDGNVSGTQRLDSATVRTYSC

effect of a mutation on the interaction | Variant
with no effect | R361C

Variants of: B1
Conditions: with 2aaa_human PPP2R1A

effect of a mutation on the interaction | Variant
with no effect | R361C

Variants of: B1
Conditions: with prdm1_human PRDM1, O75626

effect of a mutation on the interaction | Variant
with no effect | R361C

Variants of: B1
Conditions: with aapk2_human PRKAA2, P54646

effect of a mutation on the interaction | Variant
with no effect | R361C

Variants of: B1
Conditions: with aakb2_human PRKAB2, O43741

effect of a mutation on the interaction | Variant
with no effect | R361C

Variants of: B1
Conditions: with prss8_human PRSS8, Q16651

effect of a mutation on the interaction | Variant
with no effect | R361C

Variants of: B1
Conditions: with ptk6_human PTK6, Q13882

effect of a mutation on the interaction | Variant
with no effect | R361C

Variants of: B1
Conditions: with tf65_human RELA

effect of a mutation on the interaction | Variant
with no effect | R361C

Variants of: B1
Conditions: with rnf43_human RNF43, Q68DV7

effect of a mutation on the interaction | Variant
with no effect | R361C
